# Test results published in publication PMC3269305 (Journal of Molecular Biology, 2011).
# Target: human eukaryotic translation initiation factor eIF4E (human, UniProt P06730 1-217)
# Assay: crystal structure
# Sequence of human eukaryotic translation initiation factor eIF4E (P06730 whole entry): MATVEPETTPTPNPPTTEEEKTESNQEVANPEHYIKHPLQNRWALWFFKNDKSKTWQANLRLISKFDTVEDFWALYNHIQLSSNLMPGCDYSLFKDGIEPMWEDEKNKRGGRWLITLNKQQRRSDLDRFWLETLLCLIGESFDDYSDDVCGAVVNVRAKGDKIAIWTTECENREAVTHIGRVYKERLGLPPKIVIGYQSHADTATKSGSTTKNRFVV
binder,measurement,value
"PGGTRIIYDRKFLMECRNSP [4EBP1 peptide (eIF4E binding site of human 4EBP1, residues 47-66)]",binding result,binds
